This passage reports stoichiometry N results from publication PMC4257719.

One may read the stoichiometry N as the number of molecules, sites or subunits per partner or assembly.

For this assay, the target named is P. berghei SPECT1Δ41 (amino acids 42-241) (P. berghei). The assay can be described thus: SEC-MALS; TSK-Gel G3000 SWxl column with multiangle static light scattering; 150 mM NaCl, 50 mM Tris or HEPES, pH 7.4; monomer and dimer fractions run separately; the two species are stable over days. (Size exclusion chromatography separates by hydrodynamic size, large species first.)

Consider “P. berghei SPECT1Δ41 (amino acids 42-241) (domain or fragment)”, for which the stoichiometry N turned out to be 2.
